Data: patent EP2784083A1 (Charité - Universitätsmedizin Berlin, dated 2014)

T1: murine Bmpr2 (murine, UniProt O35607 27-1038)
T1 sequence (looked up): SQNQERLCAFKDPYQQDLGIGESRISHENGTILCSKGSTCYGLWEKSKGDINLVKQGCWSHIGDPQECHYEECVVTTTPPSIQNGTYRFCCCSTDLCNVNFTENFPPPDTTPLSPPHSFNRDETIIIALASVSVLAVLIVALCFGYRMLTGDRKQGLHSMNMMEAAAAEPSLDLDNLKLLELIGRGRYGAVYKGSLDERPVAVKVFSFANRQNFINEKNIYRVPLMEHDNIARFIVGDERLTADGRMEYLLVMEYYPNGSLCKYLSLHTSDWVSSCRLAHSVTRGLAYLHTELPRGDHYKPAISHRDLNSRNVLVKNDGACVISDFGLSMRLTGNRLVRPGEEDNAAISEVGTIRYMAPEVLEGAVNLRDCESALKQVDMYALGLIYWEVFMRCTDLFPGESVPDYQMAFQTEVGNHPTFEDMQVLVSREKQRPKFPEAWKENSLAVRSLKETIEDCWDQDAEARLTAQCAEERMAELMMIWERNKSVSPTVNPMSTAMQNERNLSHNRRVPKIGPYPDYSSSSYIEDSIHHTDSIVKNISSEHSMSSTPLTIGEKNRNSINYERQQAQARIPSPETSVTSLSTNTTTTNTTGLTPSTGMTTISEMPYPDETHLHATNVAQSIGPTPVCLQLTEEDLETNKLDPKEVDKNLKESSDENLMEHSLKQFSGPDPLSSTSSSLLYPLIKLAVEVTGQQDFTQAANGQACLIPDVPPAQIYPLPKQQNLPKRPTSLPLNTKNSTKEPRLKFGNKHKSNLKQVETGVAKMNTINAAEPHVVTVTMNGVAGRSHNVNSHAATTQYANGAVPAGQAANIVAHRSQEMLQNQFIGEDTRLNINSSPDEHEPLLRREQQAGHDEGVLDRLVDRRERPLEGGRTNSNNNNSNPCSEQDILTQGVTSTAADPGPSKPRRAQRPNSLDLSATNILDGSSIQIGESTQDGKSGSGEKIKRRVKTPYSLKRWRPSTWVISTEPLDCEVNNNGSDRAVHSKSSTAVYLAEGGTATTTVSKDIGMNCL

T2: murine Tβr1 (murine, UniProt Q64729 30-503)
T2 sequence (looked up): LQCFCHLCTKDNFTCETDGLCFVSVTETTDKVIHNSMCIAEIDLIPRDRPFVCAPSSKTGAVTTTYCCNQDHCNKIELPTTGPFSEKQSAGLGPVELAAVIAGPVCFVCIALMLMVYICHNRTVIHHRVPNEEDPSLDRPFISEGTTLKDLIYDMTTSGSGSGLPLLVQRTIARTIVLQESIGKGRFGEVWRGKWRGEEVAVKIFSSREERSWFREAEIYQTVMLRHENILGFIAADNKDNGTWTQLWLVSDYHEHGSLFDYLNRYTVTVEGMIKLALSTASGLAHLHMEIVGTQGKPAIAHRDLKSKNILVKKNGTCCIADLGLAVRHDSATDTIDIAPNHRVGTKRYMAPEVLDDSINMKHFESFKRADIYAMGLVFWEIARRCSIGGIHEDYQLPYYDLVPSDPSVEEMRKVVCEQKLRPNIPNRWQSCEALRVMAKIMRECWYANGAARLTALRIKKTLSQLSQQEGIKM

T3: murine Acvrl1 (murine, UniProt Q61288 23-502)
T3 sequence (looked up): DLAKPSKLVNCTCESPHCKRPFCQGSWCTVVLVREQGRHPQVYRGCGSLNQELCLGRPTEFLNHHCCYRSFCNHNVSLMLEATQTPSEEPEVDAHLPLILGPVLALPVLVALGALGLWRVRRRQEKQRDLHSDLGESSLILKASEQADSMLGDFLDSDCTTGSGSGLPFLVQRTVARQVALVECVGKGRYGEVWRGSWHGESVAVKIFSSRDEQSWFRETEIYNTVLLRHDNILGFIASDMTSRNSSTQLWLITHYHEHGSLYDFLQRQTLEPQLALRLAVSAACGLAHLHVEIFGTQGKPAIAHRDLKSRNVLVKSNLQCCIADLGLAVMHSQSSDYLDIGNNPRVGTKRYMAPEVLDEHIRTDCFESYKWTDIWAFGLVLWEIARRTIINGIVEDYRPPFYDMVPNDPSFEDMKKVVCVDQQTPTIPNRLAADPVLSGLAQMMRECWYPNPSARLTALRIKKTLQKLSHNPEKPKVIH

T4: murine Acvr1 (murine, UniProt P37172 21-509)
T4 sequence (looked up): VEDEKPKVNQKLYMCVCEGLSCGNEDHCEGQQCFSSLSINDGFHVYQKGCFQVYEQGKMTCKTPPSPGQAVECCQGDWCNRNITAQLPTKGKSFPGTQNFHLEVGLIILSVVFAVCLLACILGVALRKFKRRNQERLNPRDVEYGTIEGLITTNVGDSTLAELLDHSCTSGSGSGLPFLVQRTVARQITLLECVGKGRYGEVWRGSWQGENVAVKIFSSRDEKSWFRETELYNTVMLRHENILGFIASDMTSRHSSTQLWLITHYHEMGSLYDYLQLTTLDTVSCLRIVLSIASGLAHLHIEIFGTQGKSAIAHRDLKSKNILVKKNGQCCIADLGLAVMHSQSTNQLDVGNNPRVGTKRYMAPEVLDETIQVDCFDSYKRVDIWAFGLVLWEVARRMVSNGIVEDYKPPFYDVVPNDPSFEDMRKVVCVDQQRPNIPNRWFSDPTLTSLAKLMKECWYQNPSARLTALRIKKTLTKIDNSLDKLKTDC

T5: murine Acvr1 c (murine, UniProt Q8K348 26-493)
T5 sequence (looked up): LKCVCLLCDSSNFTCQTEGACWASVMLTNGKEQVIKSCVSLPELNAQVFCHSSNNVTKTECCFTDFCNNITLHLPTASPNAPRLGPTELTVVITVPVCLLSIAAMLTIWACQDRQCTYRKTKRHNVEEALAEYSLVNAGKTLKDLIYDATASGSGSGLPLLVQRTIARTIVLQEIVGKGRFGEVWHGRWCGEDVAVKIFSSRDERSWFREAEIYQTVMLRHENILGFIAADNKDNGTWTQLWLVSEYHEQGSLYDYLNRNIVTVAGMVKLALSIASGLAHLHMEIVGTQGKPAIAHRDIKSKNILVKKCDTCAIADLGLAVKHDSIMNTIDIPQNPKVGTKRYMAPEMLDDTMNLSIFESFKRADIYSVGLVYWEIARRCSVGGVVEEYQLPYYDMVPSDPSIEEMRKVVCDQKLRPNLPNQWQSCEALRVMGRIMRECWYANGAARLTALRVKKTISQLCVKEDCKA

T6: murine Actr1 b (murine, UniProt Q61271 24-505)
T6 sequence (looked up): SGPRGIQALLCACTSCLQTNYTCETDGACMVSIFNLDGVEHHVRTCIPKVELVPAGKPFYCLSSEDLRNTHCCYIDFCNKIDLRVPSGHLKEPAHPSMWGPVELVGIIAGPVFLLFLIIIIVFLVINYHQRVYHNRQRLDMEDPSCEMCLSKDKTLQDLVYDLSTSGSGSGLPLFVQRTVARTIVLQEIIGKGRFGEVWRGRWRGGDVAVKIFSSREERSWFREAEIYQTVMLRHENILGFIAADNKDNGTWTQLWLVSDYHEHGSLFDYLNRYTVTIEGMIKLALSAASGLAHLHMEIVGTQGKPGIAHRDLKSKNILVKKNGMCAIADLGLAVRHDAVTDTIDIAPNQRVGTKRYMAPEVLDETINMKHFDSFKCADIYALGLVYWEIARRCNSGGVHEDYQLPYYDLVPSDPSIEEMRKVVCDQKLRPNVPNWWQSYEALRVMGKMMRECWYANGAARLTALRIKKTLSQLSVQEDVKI


Key:
Experiment in all cases: cell-based or functional assay
[1] = target: wildtype human BMP2 (human) (UniProt P12643)
[2] = target: hBMP2(N341 V-N384W) (human) (UniProt P12643)
murine Acvr2b = murine Acvr2b (murine, UniProt P27040 19-536)
murine Acvr2a = murine Acvr2a (murine, UniProt P27038 20-513)
murine Bmpr2 = target: T1, murine Bmpr2
murine Tβr1 = target: T2, murine Tβr1
murine Acvrl1 = target: T3, murine Acvrl1
murine Bmpr1b = murine Bmpr1b (murine, UniProt P36898 14-502)
murine Acvr1 = target: T4, murine Acvr1
murine Acvr1 c = target: T5, murine Acvr1 c
murine Actr1 b = target: T6, murine Actr1 b
murine Bmpr1a = murine Bmpr1a (murine, UniProt P36895 24-532)
Sequence of murine Bmpr1a (P36895 24-532): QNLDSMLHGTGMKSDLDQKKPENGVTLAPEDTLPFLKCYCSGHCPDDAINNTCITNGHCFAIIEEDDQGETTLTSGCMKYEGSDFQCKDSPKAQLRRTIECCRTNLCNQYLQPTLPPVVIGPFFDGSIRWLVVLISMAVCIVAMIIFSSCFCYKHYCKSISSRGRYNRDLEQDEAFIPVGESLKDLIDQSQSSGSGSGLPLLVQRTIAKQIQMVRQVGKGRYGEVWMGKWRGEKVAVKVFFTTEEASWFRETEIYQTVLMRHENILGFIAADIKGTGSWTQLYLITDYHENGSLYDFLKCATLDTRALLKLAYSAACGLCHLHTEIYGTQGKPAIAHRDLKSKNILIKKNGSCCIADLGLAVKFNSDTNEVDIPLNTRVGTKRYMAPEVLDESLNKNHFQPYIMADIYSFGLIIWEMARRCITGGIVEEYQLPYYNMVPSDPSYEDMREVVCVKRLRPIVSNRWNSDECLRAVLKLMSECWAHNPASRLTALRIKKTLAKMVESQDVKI

Sequence of murine Acvr2a (P27038 20-513): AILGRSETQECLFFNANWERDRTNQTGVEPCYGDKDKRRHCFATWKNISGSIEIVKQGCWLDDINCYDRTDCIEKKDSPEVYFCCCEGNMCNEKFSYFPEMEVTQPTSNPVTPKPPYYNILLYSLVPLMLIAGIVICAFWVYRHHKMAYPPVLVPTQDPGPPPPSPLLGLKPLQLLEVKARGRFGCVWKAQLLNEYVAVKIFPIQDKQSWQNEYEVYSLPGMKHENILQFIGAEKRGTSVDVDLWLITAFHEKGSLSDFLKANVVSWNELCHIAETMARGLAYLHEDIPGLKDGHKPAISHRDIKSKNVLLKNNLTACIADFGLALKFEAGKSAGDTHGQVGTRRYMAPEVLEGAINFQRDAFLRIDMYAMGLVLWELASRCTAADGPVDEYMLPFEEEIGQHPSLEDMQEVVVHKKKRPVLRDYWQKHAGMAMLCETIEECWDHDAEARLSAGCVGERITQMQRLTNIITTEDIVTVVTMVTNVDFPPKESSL
Sequence of murine Acvr2b (P27040 19-536): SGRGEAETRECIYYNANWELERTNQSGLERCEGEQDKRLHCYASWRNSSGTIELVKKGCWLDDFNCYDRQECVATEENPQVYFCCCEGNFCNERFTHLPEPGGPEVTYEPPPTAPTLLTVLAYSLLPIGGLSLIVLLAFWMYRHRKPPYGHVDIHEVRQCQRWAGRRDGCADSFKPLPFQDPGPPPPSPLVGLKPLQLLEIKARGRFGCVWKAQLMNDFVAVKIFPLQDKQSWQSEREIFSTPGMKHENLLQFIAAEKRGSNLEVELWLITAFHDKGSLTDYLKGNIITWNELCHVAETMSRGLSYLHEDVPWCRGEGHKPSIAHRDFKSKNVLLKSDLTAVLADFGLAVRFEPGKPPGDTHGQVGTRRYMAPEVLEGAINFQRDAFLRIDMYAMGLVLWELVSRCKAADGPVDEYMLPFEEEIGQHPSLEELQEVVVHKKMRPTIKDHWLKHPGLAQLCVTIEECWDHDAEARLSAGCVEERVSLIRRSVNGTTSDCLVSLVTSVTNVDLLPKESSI
Sequence of murine Bmpr1b (P36898 14-502): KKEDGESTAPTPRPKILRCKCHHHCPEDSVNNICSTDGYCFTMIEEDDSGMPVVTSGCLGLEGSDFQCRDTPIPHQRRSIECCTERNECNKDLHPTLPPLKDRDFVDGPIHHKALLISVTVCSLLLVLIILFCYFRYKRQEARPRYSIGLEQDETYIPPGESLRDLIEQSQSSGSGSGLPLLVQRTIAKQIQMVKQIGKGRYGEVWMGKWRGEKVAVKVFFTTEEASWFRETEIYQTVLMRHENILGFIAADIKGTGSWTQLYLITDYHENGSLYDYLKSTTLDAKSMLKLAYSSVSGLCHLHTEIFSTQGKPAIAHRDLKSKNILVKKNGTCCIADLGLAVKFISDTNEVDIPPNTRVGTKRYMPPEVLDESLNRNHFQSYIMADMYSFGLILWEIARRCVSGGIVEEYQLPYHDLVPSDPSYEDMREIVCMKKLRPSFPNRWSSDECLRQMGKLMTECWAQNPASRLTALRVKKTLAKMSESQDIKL

Row | rel. luciferase activity (SBE reporter, NIH3T3 cells) at 5x surplus of co-transfected NOG DNA (rel. luciferase activity) [1] | rel. luciferase activity (SBE reporter, NIH3T3 cells) at 50x surplus of co-transfected NOG DNA (rel. luciferase activity) [1] | NOG DNA surplus that blocks SBE reporter activation to control levels, NIH3T3 cells (fold surplus of transfected NOG-DNA) [2] | rel. luciferase activity (SBE reporter, NIH3T3 cells) at 5x surplus of co-transfected NOG DNA (rel. luciferase activity) [2] | rel. luciferase activity (SBE reporter, NIH3T3 cells) at 50x surplus of co-transfected NOG DNA (rel. luciferase activity) [2] | chondrogenic potential in chicken micromass culture (Alcian blue), NOG co-expressed ([2]; scale: % of the wild-type activity in the absence of its antagonist) | rel. luciferase activity (SBE reporter, COS-1 cells) (murine Acvr2b) | rel. luciferase activity (SBE reporter, COS-1 cells) (murine Acvr2a) | rel. luciferase activity (SBE reporter, COS-1 cells) (murine Bmpr2) | rel. luciferase activity (SBE reporter, COS-1 cells) (murine Tβr1) | rel. luciferase activity (SBE reporter, COS-1 cells) (murine Acvrl1) | rel. luciferase activity (SBE reporter, COS-1 cells) (murine Bmpr1b) | rel. luciferase activity (SBE reporter, COS-1 cells) (murine Acvr1) | rel. luciferase activity (SBE reporter, COS-1 cells) (murine Acvr1 c) | rel. luciferase activity (SBE reporter, COS-1 cells) (murine Actr1 b) | rel. luciferase activity (SBE reporter, COS-1 cells) (murine Bmpr1a) | Molecule
1 | 1.53 | 1.51 | 500 | 9.31 | 7.11 | > 100 |  |  |  |  |  |  |  |  |  |  | human NOG (Noggin) (from UniProt Q13253 28-232)
2 |  |  |  |  |  |  | 171 rel. luciferase activity | 57.4 rel. luciferase activity | 268 rel. luciferase activity | 2.44 rel. luciferase activity | 6.41 rel. luciferase activity | 37.5 rel. luciferase activity | 1.63 rel. luciferase activity | 2.06 rel. luciferase activity | 2.81 rel. luciferase activity |  | wildtype human BMP2 (ligand) QAKHKQRKRLKSSCKRHPLYVDFSDVGWNDWIVAPPGYHAFYCHGECPFPLADHLNSTNHAIVQTLVNSVNSKIPKACCVPTELSAISMLYLDENEKVVLKNYQDMVVEGCGCR
3 |  |  |  |  |  |  | 156 rel. luciferase activity | 46.7 rel. luciferase activity | 262 rel. luciferase activity | 2.52 rel. luciferase activity | 7.57 rel. luciferase activity | 28.8 rel. luciferase activity | 1.23 rel. luciferase activity | 2.75 rel. luciferase activity | 3.4 rel. luciferase activity | 24.6 rel. luciferase activity | hBMP2(N341 V-N384W) (ligand) QAKHKQRKRLKSSCKRHPLYVDFSDVGWNDWIVAPPGYHAFYCHGECPFPLADHLNSTVHAIVQTLVNSVNSKIPKACCVPTELSAISMLYLDENEKVVLKWYQDMVVEGCGCR
